From patent US6849458 (dated 2005)

What was measured:
[1] = biological target: T1, acidic fibroblast growth factor (aFGF) (UniProt P05230 16-155, limits assumed); assay: microplate thermal shift assay, turbidity signal, 50 µM ligand
[2] = biological target: human α-thrombin (human), P00734; assay: microplate thermal shift assay; Kd at 298 K of Hirugen for thrombin with 50 µM 3dp-4660 present
[3] = biological target: human α-thrombin (human), P00734; assay: microplate thermal shift assay; 50 µM Hirugen added to thrombin with 200 µM heparin 5000 present, shift against TH/heparin 5000
[4] = biological target: human α-thrombin (human), P00734; assay: microplate thermal shift assay, 1,8-ANS fluorescence, 50 µM ligand, single ligand
[5] = biological target: human α-thrombin (human), P00734; assay: microplate thermal shift assay; Kd at 298 K of Hirugen for thrombin with 200 µM heparin 5000 present
[6] = biological target: human α-thrombin (human), P00734; assay: microplate thermal shift assay; 50 µM Hirugen added to thrombin with 50 µM 3dp-4660 present, shift against TH/3dp-4660
[7] = biological target: human α-thrombin (human), P00734; assay: microplate thermal shift assay; Kd at Tm of Hirugen for thrombin with 200 µM heparin 5000 present
[8] = biological target: human α-thrombin (human), P00734; assay: microplate thermal shift assay; Kd at Tm of Hirugen for thrombin with 50 µM 3dp-4660 present
[9] = biological target: T1, acidic fibroblast growth factor (aFGF); assay: microplate thermal shift assay, turbidity signal; Kd at 298 K estimated with equation (3)
[10] = biological target: T1, acidic fibroblast growth factor (aFGF); assay: microplate thermal shift assay, turbidity signal; Kd at Tm (322.15 K) calculated with equation (1)

T1 sequence (P05230 16-155 limits assumed): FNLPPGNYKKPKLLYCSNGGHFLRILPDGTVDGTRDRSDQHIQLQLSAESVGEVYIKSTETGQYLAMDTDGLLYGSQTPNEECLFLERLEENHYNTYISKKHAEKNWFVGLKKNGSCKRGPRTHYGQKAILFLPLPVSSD

Binder | ΔTm [1] | Kd [2] | ΔTm [3] | ΔTm [4] | Kd [5] | ΔTm [6] | Kd [7] | Kd [8] | Kd [9] | Kd [10]
EEEEE | 0 ° K | – | – | – | – | – | – | – | – | –
DGDFEEIPEEYL (modifications not checked) [Hirugen (hirudin 53-64), P01050 53-64] | – | 54 nM | 2.6 ° K | 5.8 ° K | 478 nM | 4.6 ° K | 4250 nM | 731 nM | – | –
EEEEEEEE | 5 ° K | – | – | – | – | – | – | – | 3040 nM | 10100 nM
